Laboratory results reported in paper PMC5818494 (Scientific Reports, 2018).

Assays:
[1] = target: the molecule itself; assay: crystal structure; MBP-JMJD7 (20 mg/ml), vapor diffusion, 100 mM Citrate Sodium, 20% PEG 3350, 4 °C; in the absence of α-KG; two molecules in one asymmetric unit
[2] = target: the molecule itself; assay: crystal structure; mJMJD7 (from GST-mJMJD7, tag removed, 10 mg/ml), vapor diffusion, 0.1 M MES monohydrate pH6.0, 10% PEG4000, 4 °C; in the presence of α-KG; two molecules in one asymmetric unit

| Protein | stoichiometry N [1] | stoichiometry N [2] |
| --- | --- | --- |
| MBP-JMJD7 fusion protein (with a truncated linker) (enzyme, mouse, JMJD7, mouse; Crystallised as the fusion; MBP (PDB 1HSJ) was a search model for molecular replacement) MAEAALEAVRRALQEFPAAARDLNVPRVVPYLDEPPSPLCFYRDWVCPNRPCIIRNALQHWPALQKWSLSYLRATVGSTEVSVAVTPDGYADAVRGDRFVMPAERRLPISHVLDVLEGRAQHPGVLYVQKQCSNLPTELPQLLSDIESHVPWASESLGKMPDAVNFWLGDASAVTSLHKDHYENLYCVVSGEKHFLLHPPSDRPFIPYNLYTPATYQLTEEGTFRVVDEEAMEKVPWIPLDPLAPDLTQYPSYSQAQALHCTVRAGEMLYLPALWFHHVQQSHGCIAVNFWYDMEYDLKYSYFQLMDTLTRATGLD | 2 |  |
| JMJD7 (mouse), JMJD7 protein alone generated from GST-JMJD7 fusion protein (enzyme, JMJD7, mouse; The GST-derived, tag-free form is stated for the crystals; also called mJMJD7; GST-free JMJD7) MAEAALEAVRRALQEFPAAARDLNVPRVVPYLDEPPSPLCFYRDWVCPNRPCIIRNALQHWPALQKWSLSYLRATVGSTEVSVAVTPDGYADAVRGDRFVMPAERRLPISHVLDVLEGRAQHPGVLYVQKQCSNLPTELPQLLSDIESHVPWASESLGKMPDAVNFWLGDASAVTSLHKDHYENLYCVVSGEKHFLLHPPSDRPFIPYNLYTPATYQLTEEGTFRVVDEEAMEKVPWIPLDPLAPDLTQYPSYSQAQALHCTVRAGEMLYLPALWFHHVQQSHGCIAVNFWYDMEYDLKYSYFQLMDTLTRATGLD |  | 2 |
